Laboratory results from patent US20240336681A1 (LUDWIG MAXIMILIANS UNIVERSIT T M NCHEN, published 2024).
Numbering of substitutions follows the chain as printed.

Assays:
[1] = target: recombinant C-terminally His-tagged human CD47 (extracellular domain) (human) (UniProt Q08722); assay: SPR, Biacore X100; construct captured by anti-human Fc on CM5 chip, human CD47 extracellular domain as analyte, 1:1 fit
human CD47 on cells [2] = target: T1, human CD47 on cells (human, UniProt Q08722 19-323); assay: flow cytometry on CD47-positive Expi293 cells; MFI of the antibody over MFI of the isotype control
T1 construct: also called CD47 on Molm-13, OVCAR-3, Suit-2 MSLN, HL-60 cells, red blood cells and CD47-transfected CHO cells
T1 sequence (Q08722 19-323): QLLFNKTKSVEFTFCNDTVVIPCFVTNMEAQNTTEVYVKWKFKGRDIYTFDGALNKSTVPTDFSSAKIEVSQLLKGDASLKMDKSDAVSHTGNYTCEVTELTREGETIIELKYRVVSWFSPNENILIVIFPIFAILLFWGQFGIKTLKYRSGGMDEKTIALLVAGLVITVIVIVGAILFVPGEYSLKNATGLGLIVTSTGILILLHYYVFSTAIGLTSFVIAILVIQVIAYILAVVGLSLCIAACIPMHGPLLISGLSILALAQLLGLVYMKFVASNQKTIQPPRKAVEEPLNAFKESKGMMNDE
Protocol: (§1) Initially, binding of anti-hCD47 IgG4, anti-hCD47 IgG1 antibodies and Fab domains were measured on CD47-expressing cells by flow cytometry. Cells were stained with 50 nM of antibody followed by staining with a secondary fluorescently labelled anti-human IgG Fc or light-chain antibody, and analyzed by flow cytometry. Binding was measured by calculating the median fluorescence intensity (MFI) ratio, by dividing MFI of the antibody by the MFI of the isotype control.

human CD47 on cells [3] = target: T1, human CD47 on cells; assay: flow cytometry on CD47-positive Expi293 cells, 50 nM antibody; MFI of the antibody over MFI of the isotype control
Protocol: as §1

Sequence of recombinant C-terminally His-tagged human CD47 (extracellular domain) (human) (Q08722 19-141): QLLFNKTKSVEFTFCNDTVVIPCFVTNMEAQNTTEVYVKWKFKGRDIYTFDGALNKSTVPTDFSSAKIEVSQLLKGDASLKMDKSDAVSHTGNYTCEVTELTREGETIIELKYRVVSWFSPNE

B1: 2D6-046 (bispecific antibody, part only; not given: linkers and anti-TAA IgG1 chains, V domains shown, not shown: another chain or arm of the molecule; large carriers; small tags and cut ends)
VH: QVELVQSGPEVKKPGSSVKVSCKASGYTFPSYDINWVRQRPGQGLEWMGWIYPRDGSPKYNEKFKGRVTITADTSTSTAYMELHSLRSEDTAVYYCARSVYYGTQFAYWGQGTLVTVSA
VL: DIVLTQSPSSLAVSLGERVTMSCKSSQSLLNSRTRKNYLAWYQQKPGQPPKLLIYWASTRDSGVPDRFSGSGSGTDFTLTISSLQAEDVAVYYCQQSFNLVTFGGGTKLEIK
Kd [1]: 406 nM

B2: 2D6-002 (antibody, IgG4, V domains shown)
VH: B1 VH with P9A, Y27G, R40A, T74E, H84S, A119S
VL: B1 VL with L4M, Q95K
notes: also called VH1/VL2
binding result (human CD47 on cells [2]): no binding (tested: 50 nM (not on the sheet))
MFI ratio (human CD47 on cells [3]): 1.06

B3: 2D6-006 (antibody, IgG4, V domains shown)
VH: B1 VH
VL: B1 VL with L4M, Q95K
notes: also called VH2/VL2
MFI ratio (human CD47 on cells [3]): 3.12

B4: 2D6-009 (antibody, IgG4, V domains shown)
VH: QVQLVESGGGLVQPGGSLRLSCAASGYTFTSYDINWVRQAPGKGLEWVGWIYPRDGSPKYNEKFKGRFTISADTSKNTAYLQMNSLRAEDTAVYYCARSVYYGTQFAYWGQGTLVTVSS
VL: DIVLTQSPSSLSASVGDRVTMSCKSSQSLLNSRTRKNYLAWYQQKPGKAPKLLIYWASTRDSGVPSRFSGSGSGTDFTLTISSLQPEDIATYYCKQSFNLVTFGGGTKLEIK
MFI ratio (human CD47 on cells [3]): 1.58

B5: 2D6-010 (antibody, IgG4, V domains shown)
VH: B4 VH
VL: B1 VL with L4M, Q95K
notes: also called VH3/VL2
binding result (human CD47 on cells [2]): no binding (tested: 50 nM (not on the sheet))
MFI ratio (human CD47 on cells [3]): 1.08

B6: 2D6-008 (antibody, IgG4, V domains shown)
VH: B1 VH
VL: B4 VL with L4M, M21I, S22T, S66D, I89F, G105Q, L109V
notes: also called VH2/VL4
MFI ratio (human CD47 on cells [3]): 3.29

B7: 2D6-007 (antibody, IgG4, V domains shown)
VH: B1 VH
VL: B4 VL with V3Q, L4M, M21I, S22T, I89F, G105Q, L109V
notes: also called VH2/VL3
MFI ratio (human CD47 on cells [3]): 3.92

B8: 2D6-036 (bispecific antibody, part only; not given: linkers and anti-TAA IgG1 chains, V domains shown, not shown: another chain or arm of the molecule; large carriers; small tags and cut ends)
VH: B1 VH with Y52I
VL: B1 VL with Q95K
Kd [1]: 1110 nM

B9: 2D6-037 (bispecific antibody, part only; not given: linkers and anti-TAA IgG1 chains, V domains shown, not shown: another chain or arm of the molecule; large carriers; small tags and cut ends)
VH: B1 VH with D55F
VL: B1 VL with Q95K
Kd [1]: 176 nM

B10: 2D6-011 (antibody, IgG4, V domains shown)
VH: B4 VH
VL: B4 VL with V3Q, L4M, M21I, S22T, I89F, G105Q, L109V
notes: also called VH3/VL3
MFI ratio (human CD47 on cells [3]): 4.51

B11: 2D6-013 (antibody, IgG4, V domains shown)
VH: B4 VH with T30P
VL: B4 VL
notes: also called VH4/VL1
binding result (human CD47 on cells [2]): no binding (tested: 50 nM (not on the sheet))
MFI ratio (human CD47 on cells [3]): 1.05

B12: 2D6-012 (antibody, IgG4, V domains shown)
VH: B4 VH
VL: B4 VL with L4M, M21I, S22T, S66D, I89F, G105Q, L109V
notes: also called VH3/VL4
MFI ratio (human CD47 on cells [3]): 4.1
